From patent publication US20210324108A1 (Hoffmann-La Roche, published 2021) come the findings set out here.

Usually koff stands for the rate constant with which the complex falls apart. By kon is commonly meant the rate constant with which the complex forms.

One test concerns the target T1, recombinant human FAP (human, UniProt Q12884 26-760).
T1 construct: exact construct not described; also called FAP ECD; not shown: The histidine tag (and any linker to it) implied by capture on an anti-histidine antibody
Put plainly: SPR, huFAP captured (anti-His), Ab analyte. The procedure: Around 12000 resonance units (RU) of the capturing system (15 μg/ml anti-histidine antibody; Order Code: 28995056; GE Healthcare Bio-Sciences AB, Sweden) were coupled on a CMS chip (GE Healthcare BR-1005-30) at pH 4.5 by using an amine coupling kit supplied by the GE Healthcare. Running buffer for Immobilization was HBS-N pH 7.4 (10 mM HEPES, 150 mM NaCl, pH 7.4, GE Healthcare). For the following kinetic characterization running buffer was PBS-P pH 7.4 (20 mM phosphate buffer, 2.7 mM KCl, 137 mM NaCl, 0.05% surfactant P20). The flow cell was set to 25° C.—and the sample block set to 12° C.—and primed with running buffer twice. […] The dissociation phase was monitored for up to 720 s and triggered by switching from the sample solution to running buffer. The surface was regenerated by washing with 10 mM Glycine pH 1.5 for 60 s at a flow rate of 30 μl/min. Bulk refractive index differences were corrected by subtracting the response obtained from an anti-histidine surface. Blank injections are also subtracted (=double referencing). For calculation of KD and kinetic parameters the Langmuir 1:1 model was used.

Test [1] addresses T2, recombinant human CD40_ECD (human, UniProt P25942 21-193).
T2 construct: also called human CD40 extra cellular domain
Kind of test: SPR Biacore T200, huCD40 ECD analyte, apparent KD. The procedure: The capacity of the bispecific constructs to bind human CD40 was assessed by surface plasmon resonance (SPR). […] Bulk refractive index differences were corrected by subtracting the response obtained from a goat anti human F(ab′)2 surface. Blank injections are also subtracted (=double referencing). For calculation of apparent KD and other kinetic parameters the Langmuir 1:1 model was used. The apparent Kd was calculated using the Biacore™ B4000 evaluation software (version 1.1).
In general terms: Surface plasmon resonance follows binding to a sensor surface in real time, without labels.

B1: FAP (4B9)-CD40 Contorsbody P1AE1901 (bispecific antibody, IgG1)
chain 1: not shown
chain 2: DIQMTQSPSSLSASVGDRVTITCRSSQSLVHSNGNTFLHWYQQKPGKAPKLLIYTVSNRFSGVPSRFSGSGSGTDFTLTISSLQPEDFATYFCSQTTHVPWTFGGGTKVEIKRTVAAPSVFIFPPSDEQLKSGTASVVCLLNNFYPREAKVQWKVDNALQSGNSQESVTEQDSKDSTYSLSSTLTLSKADYEKHKVYACEVTHQGLSSPVTKSFNRGECGGGGSGGGGSDKTHTCPPCPAPEAAGGPSVFLFPPKPKDTLMISRTPEVTCVVVDVSHEDPEVKFNWYVDGVEVHNAKTKPREEQYNSTYRVVSVLTVLHQDWLNGKEYKCKVSNKALGAPIEKTISKAKGQPREPQVCTLPPSRDELTKNQVSLSCAVKGFYPSDIAVEWESNGQPENNYKTTPPVLDSDGSFFLVSKLTVDKSRWQQGNVFSCSVMHEALHNHYTQKSLSLSPGKGGGGSGGGGSEVQLLESGGGLVQPGGSLRLSCAASGYSFTGYYIHWVRQAPGKGLEWVGRVIPNAGGTSYNQKFKGRFTISVDNSKNTAYLQMNSLRAEDTAVYYCAREGIYWWGQGTTVTVSSASTKGPSVFPLAPSSKSTSGGTAALGCLVKDYFPEPVTVSWNSGALTSGVHTFPAVLQSSGLYSLSSVVTVPSSSLGTQTYICNVNHKPSNTKVDKKVEPKSCGGGGSGGGGSGGGSGGGGSEVQLLESGGGLVQPGGSLRLSCAASGFTFSSYAMSWVRQAPGKGLEWVSAIIGSGASTYYADSVKGRFTISRDNSKNTLYLQMNSLRAEDTAVYYCAKGWFGGFNYWGQGTLVTVSSASVAAPSVFIFPPSDEQLKSGTASVVCLLNNFYPREAKVQWKVDNALQSGNSQESVTEQDSKDSTYSLSSTLTLSKADYEKHKVYACEVTHQGLSSPVTKSFNRGEC
notes: 2+1 contorsbody; IgG1 Fc knob/hole, P329G LALA
In the case of B1, in the test with recombinant human FAP, the Kd stood at 7.05 nM, the koff is 0.000269 s⁻¹, the on-rate constant (kon) is 38200 M⁻¹ s⁻¹ and the “t 1/2” value is 43 min. In test [1], the Kd was 6.98 nM, the dissociation rate constant (koff) is 0.00692 s⁻¹, the kon amounted to 991000 M⁻¹ s⁻¹ and the “t 1/2” value was determined as 1.67 min.

B2: FAP (4B9)-CD40 Contorsbody P1AE1799 (bispecific antibody, IgG1)
chain 1: not shown
chain 2: EVQLLESGGGLVQPGGSLRLSCAASGYSFTGYYIHWVRQAPGKGLEWVGRVIPNAGGTSYNQKFKGRFTISVDNSKNTAYLQMNSLRAEDTAVYYCAREGIYWWGQGTTVTVSSASTKGPSVFPLAPSSKSTSGGTAALGCLVKDYFPEPVTVSWNSGALTSGVHTFPAVLQSSGLYSLSSVVTVPSSSLGTQTYICNVNHKPSNTKVDKKVEPKSCGGGGSGGGGSDKTHTCPPCPAPEAAGGPSVFLFPPKPKDTLMISRTPEVTCVVVDVSHEDPEVKFNWYVDGVEVHNAKTKPREEQYNSTYRVVSVLTVLHQDWLNGKEYKCKVSNKALGAPIEKTISKAKGQPREPQVCTLPPSRDELTKNQVSLSCAVKGFYPSDIAVEWESNGQPENNYKTTPPVLDSDGSFFLVSKLTVDKSRWQQGNVFSCSVMHEALHNHYTQKSLSLSPGKGGGGSGGGGSDIQMTQSPSSLSASVGDRVTITCRSSQSLVHSNGNTFLHWYQQKPGKAPKLLIYTVSNRFSGVPSRFSGSGSGTDFTLTISSLQPEDFATYFCSQTTHVPWTFGGGTKVEIKRTVAAPSVFIFPPSDEQLKSGTASVVCLLNNFYPREAKVQWKVDNALQSGNSQESVTEQDSKDSTYSLSSTLTLSKADYEKHKVYACEVTHQGLSSPVTKSFNRGECGGGGSGGGGSGGGSGGGGSEIVLTQSPGTLSLSPGERATLSCRASQSVTSSYLAWYQQKPGQAPRLLINVGSRRATGIPDRFSGSGSGTDFTLTISRLEPEDFAVYYCQQGIMLPPTFGQGTKVEIKSSASTKGPSVFPLAPSSKSTSGGTAALGCLVKDYFPEPVTVSWNSGALTSGVHTFPAVLQSSGLYSLSSVVTVPSSSLGTQTYICNVNHKPSNTKVDKKVEPKSC
notes: as for B1
For B2, in the test with recombinant human FAP, the Kd was 4.58 nM, the koff was found to be 0.000253 s⁻¹, the kon amounted to 55300 M⁻¹ s⁻¹ and the “t 1/2” value is 45.7 min. In test [1], the Kd amounted to 15.7 nM, the koff was 0.0151 s⁻¹, the kon was 957000 M⁻¹ s⁻¹ and the “t 1/2” value is 0.767 min.

B3: FAP (4B9)-CD40 Contorsbody P1AE2255 (bispecific antibody, IgG1)
chain 1: not shown
chain 2: EVQLLESGGGLVQPGGSLRLSCAASGYSFTGYYIHWVRQAPGKGLEWVGRVIPNAGGTSYNQKFKGRFTISVDNSKNTAYLQMNSLRAEDTAVYYCAREGIYWWGQGTTVTVSSASTKGPSVFPLAPSSKSTSGGTAALGCLVEDYFPEPVTVSWNSGALTSGVHTFPAVLQSSGLYSLSSVVTVPSSSLGTQTYICNVNHKPSNTKVDEKVEPKSCGGGGSGGGGSDKTHTCPPCPAPEAAGGPSVFLFPPKPKDTLMISRTPEVTCVVVDVSHEDPEVKFNWYVDGVEVHNAKTKPREEQYNSTYRVVSVLTVLHQDWLNGKEYKCKVSNKALGAPIEKTISKAKGQPREPQVCTLPPSRDELTKNQVSLSCAVKGFYPSDIAVEWESNGQPENNYKTTPPVLDSDGSFFLVSKLTVDKSRWQQGNVFSCSVMHEALHNHYTQKSLSLSPGKGGGGSGGGGSDIQMTQSPSSLSASVGDRVTITCRSSQSLVHSNGNTFLHWYQQKPGKAPKLLIYTVSNRFSGVPSRFSGSGSGTDFTLTISSLQPEDFATYFCSQTTHVPWTFGGGTKVEIKRTVAAPSVFIFPPSDRKLKSGTASVVCLLNNFYPREAKVQWKVDNALQSGNSQESVTEQDSKDSTYSLSSTLTLSKADYEKHKVYACEVTHQGLSSPVTKSFNRGECGGGGSGGGGSGGGSGGGGSEIVLTQSPGTLSLSPGERATLSCRASQSVTSSYLAWYQQKPGQAPRLLINVGSRRATGIPDRFSGSGSGTDFTLTISRLEPEDFAVYYCQQGIMLPPTFGQGTKVEIKSSASTKGPSVFPLAPSSKSTSGGTAALGCLVKDYFPEPVTVSWNSGALTSGVHTFPAVLQSSGLYSLSSVVTVPSSSLGTQTYICNVNHKPSNTKVDKKVEPKSC
notes: 2+1 contorsbody with charged residues in the CD40 Fabs; IgG1 Fc knob/hole, P329G LALA
For B3, in the test with recombinant human FAP, the Kd is 4.44 nM, the koff is 0.000235 s⁻¹, the kon came to 52800 M⁻¹ s⁻¹ and the “t 1/2” value was 49.2 min. In test [1], the Kd was 17.3 nM, the koff came out at 0.0159 s⁻¹, the kon worked out at 918000 M⁻¹ s⁻¹ and the “t 1/2” value came to 0.733 min.

B4: FAP (4B9)-CD40 Contorsbody P1AE1800 (bispecific antibody, IgG1)
chain 1: not shown
chain 2: DIQMTQSPSSLSASVGDRVTITCRSSQSLVHSNGNTFLHWYQQKPGKAPKLLIYTVSNRFSGVPSRFSGSGSGTDFTLTISSLQPEDFATYFCSQTTHVPWTFGGGTKVEIKRTVAAPSVFIFPPSDEQLKSGTASVVCLLNNFYPREAKVQWKVDNALQSGNSQESVTEQDSKDSTYSLSSTLTLSKADYEKHKVYACEVTHQGLSSPVTKSFNRGECGGGGSGGGGSDKTHTCPPCPAPEAAGGPSVFLFPPKPKDTLMISRTPEVTCVVVDVSHEDPEVKFNWYVDGVEVHNAKTKPREEQYNSTYRVVSVLTVLHQDWLNGKEYKCKVSNKALGAPIEKTISKAKGQPREPQVCTLPPSRDELTKNQVSLSCAVKGFYPSDIAVEWESNGQPENNYKTTPPVLDSDGSFFLVSKLTVDKSRWQQGNVFSCSVMHEALHNHYTQKSLSLSPGKGGGGSGGGGSEVQLLESGGGLVQPGGSLRLSCAASGYSFTGYYIHWVRQAPGKGLEWVGRVIPNAGGTSYNQKFKGRFTISVDNSKNTAYLQMNSLRAEDTAVYYCAREGIYWWGQGTTVTVSSASTKGPSVFPLAPSSKSTSGGTAALGCLVKDYFPEPVTVSWNSGALTSGVHTFPAVLQSSGLYSLSSVVTVPSSSLGTQTYICNVNHKPSNTKVDKKVEPKSCGGGGSGGGGSGGGSGGGGSEIVLTQSPGTLSLSPGERATLSCRASQSVTSSYLAWYQQKPGQAPRLLINVGSRRATGIPDRFSGSGSGTDFTLTISRLEPEDFAVYYCQQGIMLPPTFGQGTKVEIKSSASTKGPSVFPLAPSSKSTSGGTAALGCLVKDYFPEPVTVSWNSGALTSGVHTFPAVLQSSGLYSLSSVVTVPSSSLGTQTYICNVNHKPSNTKVDKKVEPKSC
notes: as for B1
For the molecule B4, in the test with recombinant human FAP, the Kd stood at 9.07 nM, the off-rate (koff) was 0.000778 s⁻¹, the kon was 85700 M⁻¹ s⁻¹ and the “t 1/2” value turned out to be 14.8 min. Besides, in test [1], the Kd came out at 9.43 nM, the koff is 0.0127 s⁻¹, the kon was found to be 1.35e+06 M⁻¹ s⁻¹ and the “t 1/2” value came to 0.917 min.

B5: FAP (4B9)-CD40 Contorsbody P1AE1902 (bispecific antibody, IgG1)
chain 1: not shown
chain 2: EVQLLESGGGLVQPGGSLRLSCAASGYSFTGYYIHWVRQAPGKGLEWVGRVIPNAGGTSYNQKFKGRFTISVDNSKNTAYLQMNSLRAEDTAVYYCAREGIYWWGQGTTVTVSSASTKGPSVFPLAPSSKSTSGGTAALGCLVKDYFPEPVTVSWNSGALTSGVHTFPAVLQSSGLYSLSSVVTVPSSSLGTQTYICNVNHKPSNTKVDKKVEPKSCGGGGSGGGGSDKTHTCPPCPAPEAAGGPSVFLFPPKPKDTLMISRTPEVTCVVVDVSHEDPEVKFNWYVDGVEVHNAKTKPREEQYNSTYRVVSVLTVLHQDWLNGKEYKCKVSNKALGAPIEKTISKAKGQPREPQVCTLPPSRDELTKNQVSLSCAVKGFYPSDIAVEWESNGQPENNYKTTPPVLDSDGSFFLVSKLTVDKSRWQQGNVFSCSVMHEALHNHYTQKSLSLSPGKGGGGSGGGGSDIQMTQSPSSLSASVGDRVTITCRSSQSLVHSNGNTFLHWYQQKPGKAPKLLIYTVSNRFSGVPSRFSGSGSGTDFTLTISSLQPEDFATYFCSQTTHVPWTFGGGTKVEIKRTVAAPSVFIFPPSDEQLKSGTASVVCLLNNFYPREAKVQWKVDNALQSGNSQESVTEQDSKDSTYSLSSTLTLSKADYEKHKVYACEVTHQGLSSPVTKSFNRGECGGGGSGGGGSGGGSGGGGSEVQLLESGGGLVQPGGSLRLSCAASGFTFSSYAMSWVRQAPGKGLEWVSAIIGSGASTYYADSVKGRFTISRDNSKNTLYLQMNSLRAEDTAVYYCAKGWFGGFNYWGQGTLVTVSSASVAAPSVFIFPPSDEQLKSGTASVVCLLNNFYPREAKVQWKVDNALQSGNSQESVTEQDSKDSTYSLSSTLTLSKADYEKHKVYACEVTHQGLSSPVTKSFNRGEC
notes: as for B1
With B5, in the test with recombinant human FAP, the Kd worked out at 5.33 nM, the koff was found to be 0.000288 s⁻¹, the kon was determined as 54100 M⁻¹ s⁻¹ and the “t 1/2” value worked out at 40.1 min. In test [1], the Kd is 18.7 nM, the koff was 0.0145 s⁻¹, the kon was found to be 776000 M⁻¹ s⁻¹ and the “t 1/2” value was 0.8 min.
